Assay results taken from patent US20220031841A1 (ABSCI, published 2022).

Tests used:
Experiment in all cases: HuProt protein array, F635 z-score
[1] = biological target: T1, O-linked N-acetylglucosamine (GlcNAc) transferase (OGT) (human, UniProt O15294 2-1046)
T1 construct: The array carries full-length recombinant human proteins expressed in S. cerevisiae; also called Human OGT
T1 sequence: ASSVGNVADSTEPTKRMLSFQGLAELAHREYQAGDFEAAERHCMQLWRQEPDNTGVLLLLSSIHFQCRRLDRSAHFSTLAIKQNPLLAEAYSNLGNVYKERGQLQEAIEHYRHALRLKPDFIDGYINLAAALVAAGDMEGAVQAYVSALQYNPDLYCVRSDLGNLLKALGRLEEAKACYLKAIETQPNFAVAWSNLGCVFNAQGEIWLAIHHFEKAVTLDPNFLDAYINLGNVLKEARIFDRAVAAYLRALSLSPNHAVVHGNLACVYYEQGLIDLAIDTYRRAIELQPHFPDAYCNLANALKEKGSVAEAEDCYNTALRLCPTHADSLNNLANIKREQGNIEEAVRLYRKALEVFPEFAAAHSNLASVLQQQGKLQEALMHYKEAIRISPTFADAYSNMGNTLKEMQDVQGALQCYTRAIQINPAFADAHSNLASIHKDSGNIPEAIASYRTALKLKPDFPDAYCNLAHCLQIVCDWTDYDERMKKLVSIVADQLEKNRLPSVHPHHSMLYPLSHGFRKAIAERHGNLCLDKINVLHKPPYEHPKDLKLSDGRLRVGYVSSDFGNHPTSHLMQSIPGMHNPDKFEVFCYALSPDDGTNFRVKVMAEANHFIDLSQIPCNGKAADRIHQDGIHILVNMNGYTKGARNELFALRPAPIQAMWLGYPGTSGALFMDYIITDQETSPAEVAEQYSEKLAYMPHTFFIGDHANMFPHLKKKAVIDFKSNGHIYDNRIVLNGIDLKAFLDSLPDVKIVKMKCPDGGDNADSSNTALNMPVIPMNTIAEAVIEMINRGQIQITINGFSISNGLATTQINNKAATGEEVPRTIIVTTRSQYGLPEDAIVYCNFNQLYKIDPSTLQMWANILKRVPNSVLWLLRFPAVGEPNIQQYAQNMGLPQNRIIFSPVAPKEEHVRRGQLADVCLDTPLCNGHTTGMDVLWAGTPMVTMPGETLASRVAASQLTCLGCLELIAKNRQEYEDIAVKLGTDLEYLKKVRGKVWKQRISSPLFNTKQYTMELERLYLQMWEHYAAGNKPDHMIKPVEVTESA
Source text: (§1) Large scale protein arrays are versatile and sensitive platforms for antibody specificity evaluation. They can be used for the evaluation of protein binding or affinity reagents that are widely employed in research and clinical applications. The microarray used in our target identification experiment provides the largest number of unique, full-length, individually purified human proteins on a single microscope slide. This allows thousands of interactions to be profiled in a high-throughput manner. The hill-length recombinant proteins are expressed in the yeast S. cerevisiae, purified, and printed on glass slides in duplicate along with a set of control proteins (GST, BSA, histones, IgG, etc.). Such microarray is not restricted to a particular type of surface coating, although the default is glass coated with ultra-thin nitrocellulose film for the non-covalent, yet irreversible, capture of active proteins to the surface. Fourteen Protein arrays were used for the antibody cross-reactivity assay of the samples. The antibodies were probed at […] on the arrays and incubated at room temperature for 1 hour. After probing, the arrays were washed according to the protocol and probed with Alexa-647-anti-human IgG […] specific secondary antibodies under conditions optimized for signal detection. The antibody-antigen binding score was calculated for each protein represented on the array and expressed as z-scores.
(§2) Antibody samples are probed on native HuProt arrays at 1 μg/ml and incubated at room temperature for 1 hour. After probing, the arrays are washed according to the standard protocols and probed with Alexa-647-anti-human IgG Fc gamma specific secondary antibodies under conditions optimized for signal detection.
(§3) Z score is the average Z score of the duplicate spots of a given protein (each protein is printed in duplicate on a HuProt™ array). The Z score of each spot on a given array is calculated according to the equation: […]

[2] = biological target: T2, Cancer/testis antigen 1 (CTAG1A) (human, UniProt P78358 1-180)
T2 construct: The array carries full-length recombinant human proteins expressed in S. cerevisiae; also called NY-ESO-1; Cancer/Testis Antigen 1A
Source text: as §1, §2, §3

[3] = biological target: T3, Src homology 2 (SH2) domain containing inositol polyphosphate 5-phosphatase 1 (SHIP1) (human, UniProt Q92835 1-1189)
T3 construct: The array carries full-length recombinant human proteins expressed in S. cerevisiae, purified and printed on glass slides; also called INPP5D; INPP5D/SHIP1
T3 sequence: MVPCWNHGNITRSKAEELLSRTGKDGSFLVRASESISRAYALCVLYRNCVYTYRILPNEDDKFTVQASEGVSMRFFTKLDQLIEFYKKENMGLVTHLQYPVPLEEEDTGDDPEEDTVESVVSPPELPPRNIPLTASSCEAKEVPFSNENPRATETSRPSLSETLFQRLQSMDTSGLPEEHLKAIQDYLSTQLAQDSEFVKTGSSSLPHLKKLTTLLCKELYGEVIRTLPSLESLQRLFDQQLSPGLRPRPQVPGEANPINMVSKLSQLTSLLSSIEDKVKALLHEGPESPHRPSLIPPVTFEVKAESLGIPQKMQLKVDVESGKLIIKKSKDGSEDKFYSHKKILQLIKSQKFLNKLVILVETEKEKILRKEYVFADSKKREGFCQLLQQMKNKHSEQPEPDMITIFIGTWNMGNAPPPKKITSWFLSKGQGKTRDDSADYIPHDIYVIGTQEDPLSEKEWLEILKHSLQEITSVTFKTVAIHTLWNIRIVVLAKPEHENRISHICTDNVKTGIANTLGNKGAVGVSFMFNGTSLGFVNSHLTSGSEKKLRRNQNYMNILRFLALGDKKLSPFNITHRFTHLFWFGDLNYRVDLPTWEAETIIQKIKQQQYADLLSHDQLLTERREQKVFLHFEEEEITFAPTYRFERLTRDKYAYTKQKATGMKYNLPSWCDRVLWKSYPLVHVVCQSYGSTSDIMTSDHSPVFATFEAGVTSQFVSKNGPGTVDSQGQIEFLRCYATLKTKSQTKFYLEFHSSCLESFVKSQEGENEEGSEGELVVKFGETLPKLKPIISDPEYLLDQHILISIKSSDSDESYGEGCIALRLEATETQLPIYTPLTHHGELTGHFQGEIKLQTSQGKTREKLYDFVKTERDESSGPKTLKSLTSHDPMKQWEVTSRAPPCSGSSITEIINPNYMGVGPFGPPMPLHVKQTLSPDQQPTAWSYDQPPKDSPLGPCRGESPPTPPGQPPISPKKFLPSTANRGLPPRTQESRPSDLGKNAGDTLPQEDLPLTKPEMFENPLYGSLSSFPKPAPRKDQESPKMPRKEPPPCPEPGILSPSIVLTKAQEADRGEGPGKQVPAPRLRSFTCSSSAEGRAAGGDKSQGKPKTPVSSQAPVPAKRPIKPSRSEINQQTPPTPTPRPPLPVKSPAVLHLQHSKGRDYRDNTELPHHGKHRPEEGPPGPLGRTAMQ
Source text: as §1, §2, §3

[4] = biological target: T4, Inorganic pyrophosphatase (PPA1) (human, UniProt Q15181 2-289)
T4 construct: The array carries full-length recombinant human proteins expressed in S. cerevisiae; also called Human PPA1
T4 sequence: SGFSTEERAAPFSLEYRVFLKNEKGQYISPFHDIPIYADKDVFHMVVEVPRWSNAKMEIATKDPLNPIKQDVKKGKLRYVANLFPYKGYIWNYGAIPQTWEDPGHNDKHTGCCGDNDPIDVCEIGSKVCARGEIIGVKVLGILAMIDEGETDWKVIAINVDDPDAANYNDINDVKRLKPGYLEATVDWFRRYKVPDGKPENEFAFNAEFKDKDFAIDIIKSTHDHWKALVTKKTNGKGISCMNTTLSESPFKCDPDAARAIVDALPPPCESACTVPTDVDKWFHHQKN
Source text: as §1, §2, §3

[5] = biological target: T5, Melanoma-associated antigen 3 (MAGE-A3) (human, UniProt P43357 1-314)
T5 construct: The array carries full-length recombinant human proteins expressed in S. cerevisiae; also called Human MAGE-A3
Source text: as §1, §2, §3

[6] = biological target: T6, Chromobox protein homolog 1 (CBX1) (human, UniProt P83916 1-185)
T6 construct: The array carries full-length recombinant human proteins expressed in S. cerevisiae; also called Human Chromobox protein homolog 1
Source text: as §1, §2, §3

[7] = biological target: T7, Alpha-taxilin (TXLNA) also known as interleukin-14A (human, UniProt P40222 1-546)
T7 construct: The array carries full-length recombinant human proteins expressed in S. cerevisiae; also called IL-14A; TXLNA/IL-14A
Source text: as §1, §2, §3

[8] = biological target: T8, Chromobox protein homolog 5 (CBX5) (human, UniProt P45973 1-191)
T8 construct: The array carries full-length recombinant human proteins expressed in S. cerevisiae; also called Human Chromobox protein homolog 5
Source text: as §1, §2, §3

Measured: binding result

T5 sequence (P43357 whole entry): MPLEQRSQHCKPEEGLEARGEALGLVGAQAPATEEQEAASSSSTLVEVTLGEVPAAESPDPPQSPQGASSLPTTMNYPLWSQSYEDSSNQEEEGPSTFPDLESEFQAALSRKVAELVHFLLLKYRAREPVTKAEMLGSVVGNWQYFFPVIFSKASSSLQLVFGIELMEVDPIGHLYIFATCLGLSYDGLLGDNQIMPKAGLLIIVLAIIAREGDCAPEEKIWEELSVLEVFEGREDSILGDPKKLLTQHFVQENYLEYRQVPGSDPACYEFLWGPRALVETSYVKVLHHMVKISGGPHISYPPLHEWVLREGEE
T7 sequence (P40222 whole entry): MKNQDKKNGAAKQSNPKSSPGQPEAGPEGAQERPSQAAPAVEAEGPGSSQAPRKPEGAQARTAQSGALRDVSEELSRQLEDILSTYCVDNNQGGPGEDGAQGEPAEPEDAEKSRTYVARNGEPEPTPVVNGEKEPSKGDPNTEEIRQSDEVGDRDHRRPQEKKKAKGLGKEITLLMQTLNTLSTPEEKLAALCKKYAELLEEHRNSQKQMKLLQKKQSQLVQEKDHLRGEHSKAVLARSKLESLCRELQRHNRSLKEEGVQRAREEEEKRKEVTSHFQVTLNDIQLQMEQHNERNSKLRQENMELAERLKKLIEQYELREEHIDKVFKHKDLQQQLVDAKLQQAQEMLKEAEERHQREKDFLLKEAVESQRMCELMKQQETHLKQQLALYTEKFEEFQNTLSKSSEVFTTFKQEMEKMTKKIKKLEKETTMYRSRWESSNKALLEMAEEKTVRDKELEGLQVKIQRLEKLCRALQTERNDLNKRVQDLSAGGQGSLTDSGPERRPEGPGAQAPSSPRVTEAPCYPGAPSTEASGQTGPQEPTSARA
T6 sequence (P83916 whole entry): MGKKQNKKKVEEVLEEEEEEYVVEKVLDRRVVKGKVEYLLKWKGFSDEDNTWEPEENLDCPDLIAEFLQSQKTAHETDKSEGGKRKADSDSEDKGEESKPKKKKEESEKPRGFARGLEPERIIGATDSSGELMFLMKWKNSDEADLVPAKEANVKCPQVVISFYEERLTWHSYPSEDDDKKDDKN
T2 sequence (P78358 whole entry): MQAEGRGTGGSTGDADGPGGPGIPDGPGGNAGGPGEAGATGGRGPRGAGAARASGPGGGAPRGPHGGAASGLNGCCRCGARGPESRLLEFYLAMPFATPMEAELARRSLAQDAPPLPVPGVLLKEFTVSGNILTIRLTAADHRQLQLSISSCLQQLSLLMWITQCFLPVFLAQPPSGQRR
T8 sequence (P45973 whole entry): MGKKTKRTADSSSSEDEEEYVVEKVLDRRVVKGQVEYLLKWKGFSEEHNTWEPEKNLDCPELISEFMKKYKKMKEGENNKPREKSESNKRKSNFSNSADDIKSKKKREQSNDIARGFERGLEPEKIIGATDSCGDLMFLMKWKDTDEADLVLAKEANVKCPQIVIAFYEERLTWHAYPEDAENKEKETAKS

B1: TMEL1003 (antibody, V domains shown)
VH: AVQLVQSGAEVKKPGESLRISCKGSGYSFTSYWISWVRQMPGKGLEWMGRIDPSDSYTNYSPSFQGHVTISADKSISTAYLQWSSLKTSDTAMYYCARPLQTYSIASVGHWGQGTLVTVSS
VL: ASALTQPASVSGSPGQSITISCTGTSSDVGSYNLVSWYQQHPGKAPKLMIYEGSKRPSGVSNRFSGSKSGNTASLTISGLQAEDEADYYCCSYAGSSTFAVFGGGTKLTVLG
notes: the heavy entry continues into what looks like a non-IgG (IgM-like) CH1; It was detected with an anti-human IgG Fc gamma secondary antibody
no binding (tested: 1 µg/ml): [1] | [2] | [3] | [4] | [5]

B2: TMEL1001 (antibody, V domains shown)
VH: EVQLVESGGGLVKPGGSLRLSCAASGFTFRSYSMNWVRQAPGKGLEWVSSISSSGNYIYYADSVKGRFTLSRDNAKNSLYLQMNSLRAEDTAVYYCARGGGTSWSHYWGQGTLVTVSS
VL: QFMLTQPHSVSESPGKTVTISCTRSSGSIASNYVQWYQQRPGSAPTTVIYEDNERPSGVPDRFSGSIDSSSNSASLTISGLKTEDEADYYCQSYDSNNRWVFGGGTKLTVLG
notes: It was detected with an anti-human IgG Fc gamma secondary antibody
not listed: [3]
no binding (tested: 1 µg/ml): all other assays above

B3: TMEL1006 (antibody, V domains shown)
VH: VVQLVESGGGLVQPGGSLRLSCAASGLTFRNYAMSWVRQAPGKGLEWVSAISGSGGRTHYADSVKGRFTISRDNSKNTLFLQMNSLRAEDTAVYYCAKEIGKYGTPTLFQHWGQGTLVTVSS
VL: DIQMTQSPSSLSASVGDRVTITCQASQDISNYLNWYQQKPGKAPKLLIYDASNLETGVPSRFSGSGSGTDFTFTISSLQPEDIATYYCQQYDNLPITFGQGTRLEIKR
notes: as for B2
not listed: [2] | [5]
no binding (tested: 1 µg/ml): all other assays above
